Laboratory results taken from patent US5292651.

Columns and labels:
[1] = molecular target: T1, NaeI restriction endonuclease (recombinant, crude extract of NEB#777) T2A (Nocardia aerocolonigenes) (UniProt P50187); assay: cleavage_in_vitro; conditions: PstI-codigested pBR322, NEBuffer 1, 37 C, 1 h; after overnight IPTG induction
T1 sequence: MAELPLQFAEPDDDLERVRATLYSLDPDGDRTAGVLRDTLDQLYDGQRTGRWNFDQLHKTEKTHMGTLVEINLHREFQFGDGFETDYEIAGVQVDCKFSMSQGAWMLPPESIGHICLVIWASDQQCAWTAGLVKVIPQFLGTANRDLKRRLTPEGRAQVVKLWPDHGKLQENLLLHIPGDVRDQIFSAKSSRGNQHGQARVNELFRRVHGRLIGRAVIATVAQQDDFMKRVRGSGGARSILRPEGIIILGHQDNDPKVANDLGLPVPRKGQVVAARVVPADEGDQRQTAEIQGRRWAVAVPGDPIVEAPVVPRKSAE

[2] = molecular target: T2, NaeI restriction endonuclease (recombinant, from pCTnaeIR16-1) T2A (Nocardia aerocolonigenes) (UniProt P50187); assay: cleavage_in_vitro; conditions: 60 U, 4 h, 37 C, 10 mM MgCl2; nonspecific nicking test
T2 sequence: T1 sequence

In the case of pBR322 plasmid DNA, the activity [1] is reported as 77000 U/g cells.
Substance phiX174 RFI DNA has an activity (% RFI converted to RFII) [2] of under 5.
